Measurements reported in US20220153874A1 (NEURIMMUNE, published 2022).
Residue numbers refer to the chain shown, from its start. Numbers in names are those of the source. Ends that are not written are not given here.

Tests used:
[1] = biological target: T1, (GA)8 repeats; test: SPR, inset: Fab bound (RU) plotted against [Fab] from 0 to 20000 nM with a fitted saturation curve
T1 construct: also called poly-(GA)8; GA (e.g., poly(GA))
T1 peptide: GAGAGAGAGAGAGAGA

[2] = biological target: T2, synthesized dipeptide repeat protein (GA)15: H-CHHHHHH(GA)15-OH; test: indirect ELISA, coated peptide
T2 construct: also called poly-GA DPR peptide; uncoupled (GA)15 peptide
T2 peptide: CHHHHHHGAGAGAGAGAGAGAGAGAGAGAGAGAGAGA
Description: In brief, dipeptide repeat proteins were synthesized and purified by Schafer-N(Copenhagen, Denmark): (GA)₁₅: H-CHHHHHH(GA)₁₅-OH (SEQ ID NO: 61); (GP)₁₅: H-C(GP)₁₅-OH (SEQ ID NO: 62); (GR)₁₅: H-C(GR)₁₅-OH (SEQ ID NO: 63); (PA)₁₅: H-C(PA)₁₅-OH (SEQ ID NO: 64); (PR)₁₅: H—C(PR)₁₅-OH (SEQ ID NO: 65). 96-well microplates (Corning Incorporated, Corning, USA) were coated with dipeptide repeat protein peptides at a concentration of either 5 μg/ml or 20 μg/ml in coating buffer (15 mM Na₂CO₃, 35 mM NaHCO₃, pH 9.42). Non-specific binding sites were blocked for 1 h at RT with PBS/0.1% Tween®-20 containing 2% BSA (Sigma-Aldrich, Buchs, Switzerland). […] Binding was determined by measurement of HRP activity in a standard colorimetric assay.
(§1) EC₅₀ values were estimated by non-linear regression using GraphPad Prism software (San Diego, USA).

[3] = biological target: T2, synthesized dipeptide repeat protein …; test: indirect ELISA, coated uncoupled peptide
Description: (§2) In brief, poly-GA dipeptide repeat proteins were synthesized and purified by Schafer-N(Copenhagen, Denmark): (GA)₁₅: H-CHHHHHH(GA)₁₅-OH (SEQ ID NO: 61). Poly-GA DPR protein peptides were then conjugated via a bifunctional linker (SMCC) to bovine serum albumin (BSA). 96-well microplates (Corning Incorporated, Corning, USA) were coated with poly-GA BSA-coupled or uncoupled dipeptide repeat protein peptides at a concentration of 5 μg/ml in coating buffer (15 mM Na₂CO₃, 35 mM NaHCO₃, pH 9.42). Non-specific binding sites were blocked for 1 h at RT with PBS/0.1% Tween®-20 containing 2% BSA (Sigma-Aldrich, Buchs, Switzerland). […] Binding was determined by measurement of HRP activity in a standard colorimetric assay.
as §1

[4] = biological target: T3, BSA-coupled (GA)15 dipeptide repeat protein peptide (H-CHHHHHH(GA)15-OH conjugated via SMCC to bovine serum … (bovine, UniProt P02769 25-607, conjugated via a bifunctional linker (SMCC) to bovine serum albumin (BSA))); test: indirect ELISA, coated BSA-coupled peptide
T3 construct: also called BSA-coupled peptide; BSA-conjugated poly-GA
Description: as §2, §1

[5] = biological target: T4, synthesized dipeptide repeat protein (GA)6: H-(GA)6HHHHHH-NH2; test: indirect ELISA, peptide coated at 50 µg/ml
T4 peptide: H-GAGAGAGAGAGAHHHHHH-NH2
Excerpt: (§3) In brief, Dipeptide repeat protein peptides were synthesized and purified by Schafer-N(Copenhagen, Denmark): GA₂₀: H-(GA)₂₀HHHHHH-NH₂ (SEQ ID NO: 71); GA₁₀: H-(GA)₁₀HHHHHH-NH₂ (SEQ ID NO: 72); GA₆: H-(GA)₆HHHHHH-NH₂ (SEQ ID NO: 73); GA₅: H-(GA)₅HHHHHH-NH₂ (SEQ ID NO: 74); GA₄: H-(GA)₄HHHHHH-NH₂ (SEQ ID NO: 75); GA₃: H-(GA)₃HHHHHH-NH₂ (SEQ ID NO: 76); GA₂: H-(GA)₂HHHHHH-NH₂ (SEQ ID NO: 77). 96-well microplates (Corning Incorporated, Corning, USA) were coated with dipeptide repeat protein peptides at a concentration of 50 μg/ml in coating buffer (15 mM Na₂CO₃, 35 mM NaHCO₃, pH 9.42). Non-specific binding sites were blocked for 1 h at RT with PBS/0.1% Tween®-20 containing 2% BSA (Sigma-Aldrich, Buchs, Switzerland). […] Binding was determined by measurement of HRP activity in a standard colorimetric assay. EC₅₀ values were estimated by non-linear regression using GraphPad Prism software (San Diego, USA).
(§4) High affinity binding was detected for poly-GA DPRs harboring 10 (SEQ ID NO: 79) or 20 (GA)-repeats (SEQ ID NO: 82), reflected in an EC₅₀ in the subnanomolar range (Table 5, FIG. 6).

[6] = biological target: T5, synthesized dipeptide repeat protein (GA)20: H-(GA)20HHHHHH-NH2 (C-terminal amide (-NH2)); test: indirect ELISA, peptide coated at 50 µg/ml
T5 peptide: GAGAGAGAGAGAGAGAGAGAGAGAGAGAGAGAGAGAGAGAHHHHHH
Excerpt: as §3, §4

[7] = biological target: T6, synthesized dipeptide repeat protein (GA)10: H-(GA)10HHHHHH-NH2 (C-terminal amide (-NH2)); test: indirect ELISA, peptide coated at 50 µg/ml
T6 peptide: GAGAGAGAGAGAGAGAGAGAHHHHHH
Excerpt: as §3, §4

[8] = biological target: T2, synthesized dipeptide repeat protein …; test: BLI (Octet RED96), peptide immobilised on AR2G sensor, IgG as analyte, 1:1 model
Description: Poly-GA dipeptide repeat protein peptides were synthesized and purified by Schafer-N (Copenhagen, Denmark): (GA)₁₅: H-CHHHHHH(GA)₁₅-OH (SEQ ID NO: 61). Pure, lyophilized (GA)₁₅ (SEQ ID NO: 66) was dissolved in DMSO (Sigma-Aldrich, Buchs, Switzerland) at a concentration of 10 mg/ml and stored at −20° C. In brief, bio-layer interferometry experiments were performed on Octet RED96 instrument (Pall ForteBio LLC, Fremont, USA). Octet amine-reactive (AR2G) biosensors were used for covalent immobilization of (GA)₁₅ (SEQ ID NO: 66) dipeptide repeat protein peptides. AR2G biosensors were activated with EDC (1-Ethyl-3-[3-dimethylaminopropyl] carbodiimide hydrochloride; 20 mM in water; Pall ForteBio LLC, Fremont, USA) and s-NHS (N-hydroxysulfosuccinimide; 10 mM in water; Pall ForteBio LLC, Fremont, USA) for 300 s, followed by loading of the biosensor surface with 5 μg/ml of (GA)₁₅ (SEQ ID NO: 66) peptides in 10 mM acetate buffer pH 6 (Pall ForteBio LLC, Fremont, USA) for 600 s. […] Antibody dissociation was evaluated in kinetics buffer for 800 s. All binding data were referenced by collecting data with a PBS only reference. Data analysis was performed by using the Octet system software (Pall ForteBio LLC, Fremont, USA) with simultaneous Kₐ/Kd global fitting with 1:1 interaction model. BLI sensorgrams were drawn with the Prism software from GraphPad (San Diego, USA) upon fitting.

[9] = biological target: T7, synthetic biotin-8xGA (also: biotin, position not given here); test: SPR (Biacore T200), biotin-8xGA captured on Biotin CAPture chip, Fab as analyte, 1:1 model
T7 construct: also called synthetic 8×GA; poly-(GA)8 peptide
T7 peptide: GAGAGAGAGAGAGAGA
Description: Variant Fabs were assessed for binding to synthetic poly-GA by SPR, using a Biacore T200 instrument (GE Healthcare). Synthetic biotin-8xGA was captured on a Biotin CAPture chip (GE Healthcare) at […] from solutions at 5 ng/mL in SPR buffer (10 mM HEPES, pH 7.2, 150 mM NaCl, 3.4 mM EDTA, 0.05% BSA, 0.005% surfactant P20) using reagents and protocols provided by the manufacturer. A series of solutions of variant antibody Fab fragments at increasing concentrations of 1.23, 3.7, 11, 33, and 100 nM in SPR buffer were injected over the biotin-8xGA coated sensor chip for 4 min each at 30 μL/min followed by buffer wash, and the binding response relative to a reference sensor with no biotin-8xGA was recorded during injections and for 15 min after the final injection. Data were analyzed with Biacore T200 Evaluation Software v3.0 using a 1:1 binding model.

T3 sequence (P02769 25-607 limits assumed): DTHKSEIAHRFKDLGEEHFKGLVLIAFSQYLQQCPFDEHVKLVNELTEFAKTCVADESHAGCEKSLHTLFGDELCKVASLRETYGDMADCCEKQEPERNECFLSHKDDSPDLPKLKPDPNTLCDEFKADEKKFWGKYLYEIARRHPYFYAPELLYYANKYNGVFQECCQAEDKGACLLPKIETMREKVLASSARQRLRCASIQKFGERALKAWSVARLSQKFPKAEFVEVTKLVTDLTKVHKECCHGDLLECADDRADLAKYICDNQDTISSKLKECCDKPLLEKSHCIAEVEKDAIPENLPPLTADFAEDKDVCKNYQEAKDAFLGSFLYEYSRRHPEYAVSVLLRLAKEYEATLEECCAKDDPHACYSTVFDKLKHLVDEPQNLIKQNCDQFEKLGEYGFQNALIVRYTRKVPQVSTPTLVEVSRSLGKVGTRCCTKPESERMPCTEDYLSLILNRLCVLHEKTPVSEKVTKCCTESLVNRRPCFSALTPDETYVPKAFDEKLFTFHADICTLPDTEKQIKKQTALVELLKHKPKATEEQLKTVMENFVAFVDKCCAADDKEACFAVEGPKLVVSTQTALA

B1: Fab fragment of DPR Ab-1 (Fab, V domains shown)
VH: QVQLVESGGGVVQPGRSLRLSCAASGFTFSNHAMHWVRQAPGKGLEWVAVISYDGENTYYADSIEGRFTISRDNFKNTLFLQMYSLTADDTAMYFCARGGRRGHFTSYYLDYWGQGTLVTVSS
VL: DIQMTQSPSSLSASVGDRVTITCRASQNIDKYLNWYQQIPGKAPKLLIYAASSLHSGVPSRFSGSGSGTDFSLTISSLQPEDFAIYYCQQSYSSFRTFGQGTKLEIK
notes: also called DPR Ab-1 Fab
How did the Kd [1] turn out when B1 was run?
The Kd was 4600 nM.

B2: NI-308.5J10 recombinant human-derived monoclonal antibody (human IgG1, kappa) (antibody, V domains shown)
VH: SETLSLTYTVLGGSVSDYYWSCIRQPAGKGLEWIGRTYTNGKTTYTYNPSLESRLSLSIDTSMNQFSLKLTSVTAADTAVYYCARWGAVTGDYYYGMDVWGPGTLVTVSS
VL: EIVLTQSPLSLSVTPGEPASISCRSPRSLLHTNGYTYLDWYLQRPGQSPQLLIFLASNRASGVPDRFSGSGSGTNFTLRISGVEADDVGVYYCMQGLQPSWTFGQGTKVEIKR
notes: Full hIgG1 heavy chain (plasmid SDD151) and kappa light chain (plasmid SDD152); also called 5J10 hIgG1
How did the EC50 [2] turn out when B2 was run?
Its EC50 is 0.26 nM.

What about the EC50 [3] of the same binder?
Its EC50 is 0.23 nM.

And the EC50 [4]?
The EC50 was 0.16 nM.

And the EC50 [5]?
Its EC50 is 13.8 nM.

What about the EC50 [6] of the same binder?
The EC50 was 0.29 nM.

What about the EC50 [7] of the same binder?
Its EC50 is 0.3 nM.

What about the Kd [8] of the same binder?
The Kd was 0.15 nM.

And the koff [8]?
Its koff is 2.4e-05 s⁻¹.

What about the kon [8] of the same binder?
The kon was 163000 M⁻¹ s⁻¹.

B3: NI-308.5J10 variant WT-Fab-6His / N75D light chain (Fab, V domains shown)
VH: B2 VH
VL: B2 VL with N75D
notes: Plasmids SDD178 and SDD177; also called LC N75D Fab; 5J10-LC N75D Fab
For B3, which Kd [9] is on record?
Its Kd is 26 nM.

What about the koff [9] of the same binder?
The koff was 0.0059 s⁻¹.

What about the kon [9] of the same binder?
The kon was 230000 M⁻¹ s⁻¹.

B4: NI-308.5J10 variant N54S-Fab-6His / N75D light chain (Fab, V domains shown)
VH: B2 VH with N40S
VL: B2 VL with N75D
notes: Plasmids SDD179 and SDD177; also called HC N54S/LC N75D Fab; 5J10-LC N75D, HC N54S Fab
Which Kd [9] does the source give for B4 here?
Its Kd is 21 nM.

And the koff [9]?
Its koff is 0.006 s⁻¹.

And the kon [9]?
The kon was 290000 M⁻¹ s⁻¹.

B5: NI-308.5J10 variant G55T-Fab-6His / N75D light chain (Fab, V domains shown)
VH: B2 VH with G41T
VL: B2 VL with N75D
notes: Plasmids SDD182 and SDD177; also called HC G55T/LC N75D Fab; 5J10-LC N75D, HC G55T Fab
For B5, which Kd [9] is on record?
Its Kd is 22 nM.

What about the koff [9] of the same binder?
Its koff is 0.0044 s⁻¹.

What about the kon [9] of the same binder?
The kon was 200000 M⁻¹ s⁻¹.

B6: NI-308.5J10 WT Fab-6His (WT-Fab-6His / WT light chain) (Fab, V domains shown)
VH: B2 VH
VL: B2 VL
notes: The heavy chain is VH-CH1 with a C-terminal hexahistidine tag; also called 5J10 Fab
Which results are given for B6?
Kd [9]: 28 nM; koff [9]: 0.0078 s⁻¹; kon [9]: 270000 M⁻¹ s⁻¹

B7: NI-308.5J10 variant G55S-Fab-6His / N75D light chain (Fab, V domains shown)
VH: B2 VH with G41S
VL: B2 VL with N75D
notes: Plasmids SDD181 and SDD177; also called HC G55S/LC N75D Fab; 5J10-LC N75D, HC G55S Fab
B7 was tested. Which Kd [9] did it give?
Its Kd is 24 nM.

And the koff [9]?
The koff was 0.0044 s⁻¹.

What about the kon [9] of the same binder?
The kon was 180000 M⁻¹ s⁻¹.

B8: NI-308.5J10 variant N54T-Fab-6His / N75D light chain (Fab, V domains shown)
VH: B2 VH with N40T
VL: B2 VL with N75D
notes: Plasmids SDD180 and SDD177; also called HC N54T/LC N75D Fab; 5J10-LC N75D, HC N54T Fab
For B8, which Kd [9] is on record?
The Kd was 30 nM.

What about the koff [9] of the same binder?
Its koff is 0.0076 s⁻¹.

What about the kon [9] of the same binder?
The kon was 260000 M⁻¹ s⁻¹.
